The results in this text go back to the supplement of paper PMC7877785.

± gives the uncertainty stated by the source.

The nature of the data set: self-splicing fitness, log relative to wild type (ln ratio); higher = more splicing; Tetrahymena group I intron in knt gene, E. coli kanamycin selection, DiMSum; sequences stand for … in CUCUCU…GGAGGGAAAAGUUAUCAGGCAUGCACCUGGUAGCUAGUCUUUAAACCAAUAGAUUGCAUCGGUUUAAAAGGCAAGACCGUCAAAUUGCGGGAAAGGGGUCAACAGCCGUUCAGUACCAAGUCUCAGGGGAAACUUUGAGAUGGCCUUGCAAAGGGUAUGGUAAUAAGCUGACGGACAUGGUCCUAACCACGCAGCCAAGUCCUAAGUCAACAGAUCUUCUGUUGAUAUGGAUGCAGUUCACAGACUAAAUGUCGGUCGGGGAAGAUGUAUUCUUCUCAUAAGAUAUAGUCGGACCUCUCCUUAAUGGGAGCUAGCGGAUGAAGUGAUGCAACACUGGAGCCGCUGGGAACUAAUUUGUAUGCGAAAGUAUAUUGAUUAGUUUUGGAGUACUCGUGGUCG
In short, it runs like this: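 DiMSum derived fitness as the error-weighted combination of fold changes across replicates, kanamycin versus no kanamycin, normalised to wild type. E. coli BL21(DE3) held the library, which randomised all eight P1ex-region intron nucleotides within the knt kanamycin-resistance gene on pET-22b(+). Six replicate transformations grew overnight at 37°C or 30°C on LB agar with or without 25 μg/mL kanamycin, also containing 100 μg/mL carbenicillin, 50 μM IPTG and 0.2% rhamnose, and pooled colonies were amplicon-sequenced on an Illumina HiSeq 2500.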

As to UAUAAGCAAUAUUACGAACG, the “self-splicing fitness (ln)” value (30 °C) is -0.609 ± 0.12 and the “self-splicing fitness (ln)” value (37 °C) was 0.622 ± 0.15.
For CGUUAGCAAUAUUACGGUUC, in that order: -3.01 ± 0.38 and -1.83 ± 0.31.
For UAGCAGCAAUAUUACGCCUA, in that order: -0.551 ± 0.13 and 0.446 ± 0.15.
On to UUGUAGCAAUAUUACGGCCA, for which the “self-splicing fitness (ln)” value (30 °C) is -0.782 ± 0.2 and the “self-splicing fitness (ln)” value (37 °C) came to 0.581 ± 0.28.
As to CCAAAGCAAUAUUACGGUGA, the “self-splicing fitness (ln)” value is, setting by setting: (30 °C) -3.77 ± 0.25; (37 °C) -4.04 ± 0.34.
For the sequence GGGCAGCAAUAUUACGUGCC, the “self-splicing fitness (ln)” value (37 °C) was -0.519 ± 0.48.
For the sequence GGUGAGCAAUAUUACGGCUG, the “self-splicing fitness (ln)” value (30 °C) is -1.06 ± 0.15 and the “self-splicing fitness (ln)” value (37 °C) is -0.543 ± 0.21.
Turning to AAAUAGCAAUAUUACGCAUU, the “self-splicing fitness (ln)” value was -2.89 ± 0.14 (30 °C) and -1.52 ± 0.12 (37 °C).
Take GUGAAGCAAUAUUACGGCGU: the “self-splicing fitness (ln)” value (30 °C) came to 0.663 ± 0.12 and the “self-splicing fitness (ln)” value (37 °C) worked out at 0.727 ± 0.15.
For GAGAAGCAAUAUUACGUACU, in that order: 0.0719 ± 0.08 and 0.0321 ± 0.11.
For GAGCAGCAAUAUUACGGAUC, in that order: -0.51 ± 0.12 and -0.724 ± 0.12.
For AUGGAGCAAUAUUACGGCUG, in that order: -2.48 ± 0.17 and -1.84 ± 0.34.
As for AUUCAGCAAUAUUACGUGGA, the “self-splicing fitness (ln)” value by setting is: (30 °C) -2.72 ± 0.18; (37 °C) -1.79 ± 0.12.
Take GGGGAGCAAUAUUACGAUGG: the “self-splicing fitness (ln)” value reads like this: (30 °C) -2.44 ± 0.45; (37 °C) -2.67 ± 0.44.
Regarding AAAAAGCAAUAUUACGAGUA, the “self-splicing fitness (ln)” value is, setting by setting: (30 °C) -1.68 ± 0.12; (37 °C) -0.884 ± 0.11.
For AGUUAGCAAUAUUACGAUAA, in that order: -2.31 ± 0.21 and -0.658 ± 0.22.
In the case of ACUCAGCAAUAUUACGCGGG, the “self-splicing fitness (ln)” value is, setting by setting: (30 °C) -2.91 ± 0.15; (37 °C) -2.68 ± 0.18.
For the sequence CAUCAGCAAUAUUACGGCCG, the “self-splicing fitness (ln)” value is -0.131 ± 0.093 (30 °C) and -0.0546 ± 0.14 (37 °C).
As to UCGGAGCAAUAUUACGAGCC, for the setting “30 °C”, the “self-splicing fitness (ln)” value is -2.93 ± 0.41.
GUAGAGCAAUAUUACGUGUU: the “self-splicing fitness (ln)” value is -3.68 ± 0.21 (30 °C) and -2.04 ± 0.19 (37 °C).
For AGUCAGCAAUAUUACGGUUU, in that order: -0.329 ± 0.065 and -0.197 ± 0.08.
For GCGCAGCAAUAUUACGCGUG, the “self-splicing fitness (ln)” value is, setting by setting: (30 °C) -1.93 ± 0.11; (37 °C) -1.36 ± 0.13.
For AAACAGCAAUAUUACGUUAU, in that order: -2.23 ± 0.072 and -1.22 ± 0.085.
Turning to CAGAAGCAAUAUUACGAUUC, under “37 °C”, the “self-splicing fitness (ln)” value was -1.98 ± 0.18.
With GCGCAGCAAUAUUACGCAUG, the “self-splicing fitness (ln)” value by setting is: (30 °C) -3.37 ± 0.28; (37 °C) -3.3 ± 0.33.
For GGCCAGCAAUAUUACGCACG, in that order: -1.18 ± 0.07 and -0.36 ± 0.082.
For GUUCAGCAAUAUUACGAGUC, in that order: -1.32 ± 0.15 and -0.628 ± 0.17.
Turning to UGCGAGCAAUAUUACGGAUG, the “self-splicing fitness (ln)” value (30 °C) was -3.65 ± 0.16 and the “self-splicing fitness (ln)” value (37 °C) is -2.02 ± 0.14.
For CAUCAGCAAUAUUACGUGUC, in that order: -3.93 ± 0.19 and -1.08 ± 0.12.
CUCGAGCAAUAUUACGGGUA: the “self-splicing fitness (ln)” value runs as follows: (30 °C) -4.2 ± 0.39; (37 °C) -1.81 ± 0.16.
Regarding GUCCAGCAAUAUUACGCAAC, the “self-splicing fitness (ln)” value is -0.987 ± 0.099 (30 °C) and -0.844 ± 0.11 (37 °C).
On to AAGUAGCAAUAUUACGACGU, for which the “self-splicing fitness (ln)” value was -0.114 ± 0.059 (30 °C) and 0.403 ± 0.078 (37 °C).
On to AGCCAGCAAUAUUACGUACA, for which the “self-splicing fitness (ln)” value runs as follows: (30 °C) -3.16 ± 0.22; (37 °C) -2.5 ± 0.27.
In the case of GUCAAGCAAUAUUACGAAAG, the “self-splicing fitness (ln)” value runs as follows: (30 °C) -3.72 ± 0.4; (37 °C) -1.39 ± 0.49.
As to GCGCAGCAAUAUUACGCUCC, the “self-splicing fitness (ln)” value is -0.982 ± 0.34 (30 °C) and -1.01 ± 0.45 (37 °C).
For UACCAGCAAUAUUACGCGAA, in that order: -0.474 ± 0.063 and -0.386 ± 0.086.
In the case of UACUAGCAAUAUUACGGGUC, the “self-splicing fitness (ln)” value was -2.68 ± 0.21 (30 °C) and -2.29 ± 0.26 (37 °C).
On to UCUGAGCAAUAUUACGCCAC, for which the “self-splicing fitness (ln)” value (30 °C) is -2.41 ± 0.49.
In the case of CUUAAGCAAUAUUACGCCCU, the “self-splicing fitness (ln)” value (30 °C) was -3.17 ± 0.32 and the “self-splicing fitness (ln)” value (37 °C) was -1.96 ± 0.43.
Regarding GUCCAGCAAUAUUACGUUCU, the “self-splicing fitness (ln)” value by setting is: (30 °C) -2.35 ± 0.09; (37 °C) -0.777 ± 0.08.
For GCACAGCAAUAUUACGUUCU, in that order: -0.579 ± 0.054 and -0.524 ± 0.068.
For AGCGAGCAAUAUUACGCGGA, in that order: -3.21 ± 0.21 and -2.45 ± 0.19.
CCAGAGCAAUAUUACGCAAU: the “self-splicing fitness (ln)” value is -2.14 ± 0.2 (30 °C) and -2.05 ± 0.31 (37 °C).
GACAAGCAAUAUUACGAUCC: the “self-splicing fitness (ln)” value reads like this: (30 °C) -2.7 ± 0.22; (37 °C) -2.08 ± 0.34.
As for CAGGAGCAAUAUUACGAUCA, the “self-splicing fitness (ln)” value reads like this: (30 °C) -1.84 ± 0.16; (37 °C) -2.74 ± 0.28.
On to GGUCAGCAAUAUUACGCUUC, for which the “self-splicing fitness (ln)” value is -1.12 ± 0.14 (30 °C) and -0.693 ± 0.24 (37 °C).
Consider GGCCAGCAAUAUUACGCCAC, for which the “self-splicing fitness (ln)” value by setting is: (30 °C) -4.58 ± 0.46; (37 °C) -1.8 ± 0.49.
For GUAGAGCAAUAUUACGCAUA, in that order: -1.58 ± 0.14 and -1.59 ± 0.17.
GGAAAGCAAUAUUACGCACC: the “self-splicing fitness (ln)” value (30 °C) was -1.43 ± 0.21.
In the case of UGCUAGCAAUAUUACGACUA, the “self-splicing fitness (ln)” value runs as follows: (30 °C) -0.649 ± 0.16; (37 °C) -0.872 ± 0.14.
For UAUUAGCAAUAUUACGGAGA, in that order: -2.09 ± 0.25 and -2.18 ± 0.32.
Consider GUGGAGCAAUAUUACGAUUU, for which the “self-splicing fitness (ln)” value was -1.07 ± 0.27 (30 °C) and -1.29 ± 0.29 (37 °C).
For CUCGAGCAAUAUUACGUGUU, in that order: -2.06 ± 0.16 and -1.97 ± 0.19.
For UGUAAGCAAUAUUACGUUUA, in that order: -0.814 ± 0.16 and -1.51 ± 0.14.
For AAACAGCAAUAUUACGUUAA, in that order: -2.66 ± 0.11 and -0.816 ± 0.092.
In the case of AGUGAGCAAUAUUACGAACU, the “self-splicing fitness (ln)” value was -2.3 ± 0.18 (30 °C) and -2.58 ± 0.33 (37 °C).
For the sequence AUUAAGCAAUAUUACGCGGG, the “self-splicing fitness (ln)” value was -2.61 ± 0.22 (30 °C) and -1.72 ± 0.17 (37 °C).
Take GAAUAGCAAUAUUACGGACG: the “self-splicing fitness (ln)” value runs as follows: (30 °C) -1.84 ± 0.16; (37 °C) -0.471 ± 0.22.
Take GUGCAGCAAUAUUACGAAAC: the “self-splicing fitness (ln)” value runs as follows: (30 °C) -1.82 ± 0.1; (37 °C) -1.26 ± 0.095.
For CCGUAGCAAUAUUACGCGCA, in that order: -3.09 ± 0.3 and -1.69 ± 0.4.
For GUGAAGCAAUAUUACGGUAG, in that order: -1.79 ± 0.087 and -0.687 ± 0.1.
With CAAGAGCAAUAUUACGUUUA, the “self-splicing fitness (ln)” value runs as follows: (30 °C) -2.84 ± 0.26; (37 °C) -1.61 ± 0.23.
As for UUUAAGCAAUAUUACGAACG, the “self-splicing fitness (ln)” value runs as follows: (30 °C) -1.08 ± 0.18; (37 °C) 0.0714 ± 0.21.
Take GGUUAGCAAUAUUACGAGUC: the “self-splicing fitness (ln)” value (30 °C) was -3 ± 0.39 and the “self-splicing fitness (ln)” value (37 °C) was -1.16 ± 0.23.
For CACAAGCAAUAUUACGGUAC, in that order: -4.11 ± 0.22 and -2.03 ± 0.17.
For AGGAAGCAAUAUUACGUGAG, in that order: -0.821 ± 0.1 and -1.57 ± 0.14.
For the sequence GGGUAGCAAUAUUACGAACC, the “self-splicing fitness (ln)” value (30 °C) was -2.05 ± 0.39.
For AUUAAGCAAUAUUACGUGUG, the “self-splicing fitness (ln)” value reads like this: (30 °C) -1.9 ± 0.089; (37 °C) -1.18 ± 0.1.
For CCGGAGCAAUAUUACGUGCU, in that order: -2.99 ± 0.17 and -2.85 ± 0.24.
For ACACAGCAAUAUUACGGGUA, in that order: -2.3 ± 0.098 and -1.26 ± 0.074.
For CGGGAGCAAUAUUACGAUUG, the “self-splicing fitness (ln)” value (30 °C) was -2.22 ± 0.46 and the “self-splicing fitness (ln)” value (37 °C) was -1.72 ± 0.34.
As to GCUAAGCAAUAUUACGCCGC, the “self-splicing fitness (ln)” value (30 °C) is -2.72 ± 0.48.
CCGCAGCAAUAUUACGUUAG: the “self-splicing fitness (ln)” value is -1.11 ± 0.064 (30 °C) and -0.553 ± 0.076 (37 °C).
Turning to AAAAAGCAAUAUUACGUGGG, the “self-splicing fitness (ln)” value was -3.51 ± 0.13 (30 °C) and -2.03 ± 0.13 (37 °C).
GUAUAGCAAUAUUACGCAGG: the “self-splicing fitness (ln)” value was -3.15 ± 0.45 (30 °C) and -3.36 ± 0.47 (37 °C).
On to AUUGAGCAAUAUUACGAUAU, for which the “self-splicing fitness (ln)” value runs as follows: (30 °C) -2.76 ± 0.18; (37 °C) -1.04 ± 0.17.
For GUCAAGCAAUAUUACGACGU, in that order: -1.26 ± 0.056 and 0.099 ± 0.07.
